Data set [1] has as its target T1, nsp12 (RdRp);nsp7;nsp8 (SARS-CoV-2;SARS-CoV-2;SARS-CoV-2, UniProt P0DTD1;P0DTD1;P0DTD1 4393-5324;3860-3942;3943-4140, ||). As to the kind of experiment: EMSA; 2.4 uM protein. Conditions: protein: recombinant;recombinant;recombinant; tags: ;N-terminal His6 removed by TEV;; copies: 1;1;2.
The target in data set [2] is T1, nsp12 (RdRp);nsp7;nsp8. As to the kind of experiment: EMSA; 10 mM MgCl2. Conditions: protein: recombinant;recombinant;recombinant; tags: ;N-terminal His6 removed by TEV;; copies: 1;1;2; hairpin, blunt, no 5' overhang. A general note: In EMSA bound probe runs differently from free probe, usually more slowly.
The target in data set [3] is T1, nsp12 (RdRp);nsp7;nsp8. As to the kind of experiment: EMSA; 10 mM MgCl2; broadened shifted bands. Conditions: protein: recombinant;recombinant;recombinant; tags: ;N-terminal His6 removed by TEV;; copies: 1;1;2.

As to TTTTCATGCTACGCGTAGTTTTCTACGCG (structured_DNA) [CoV-DNA1], in the data set with nsp12 (RdRp);nsp7;nsp8 [1], the binding result is listed as “no binding”.

In the case of CGCGUAGUUUUCUACGCG (structured_RNA) [CoV-RNA1 truncated], in the data set with nsp12 (RdRp);nsp7;nsp8 [2], the binding result is listed as “no binding”.

On to UUUUCAUGCUACGCGUAGUUUUCUACGCG (structured_RNA) [CoV-RNA1], for which the binding result with nsp12 (RdRp);nsp7;nsp8 [3] is recorded as “binds”.

The values above are taken from PMC9185715.
